pKd: −log10 of the molar value. One block for each molecule: values may come before it.
Legend:
[1] = tested on: γH2AX foci in HeLa cells; assay: γH2AX focus formation after irradiation; assay type: cell-based; conditions: 10 μM inhibitor, 1 hr prior to 3 Gy IR, fixed 30 min later
[2] = biological target: 53BP1 BRCT2 domain (UniProt Q12888); assay: fluorescence polarization titration; conditions: reference: pS139 peptide, untreated; sites S139
[3] = biological target: His6-SUMO-53BP1-BRCT2
[4] = biological target: fluorescein-…pSQEY (γH2AX phosphopeptide) (human); assay: fluorescence polarisation

Molecule: O=c1cc(-c2cccc3c2Sc2ccccc2S3)oc(N2CCOCC2)c1 [KU55933]
- γH2AX focus formation on irradiation [1]: substantially diminished

- KD [2]: lost; reference 1.4 ± 0.15
Molecule: H2AX (γH2AX when phosphorylated on Ser139) C-terminal 13 residues, 130-142 (from UniProt P16104) λ-phosphatase treated peptide

Molecule: His6-SUMO-53BP1-BRCT2 (domain or fragment)
- stoichiometry N [3]: 2
- pKd [4]: 5.85

From article PMC4688034 (Cell Reports, 2015)
